Two molecules from patent US12331106B2, “Anti-angiopoietin-2 antibodies that induce Tie2 activation” (Institute for Basic Science, priority 2018, dated 2025) can be followed below.

The target in one data set is T1, hAng2-RBD (Homo sapiens, UniProt O15123).
T1 construct: made in house; host or cells: HEK293F
T1 sequence (O15123 276-496): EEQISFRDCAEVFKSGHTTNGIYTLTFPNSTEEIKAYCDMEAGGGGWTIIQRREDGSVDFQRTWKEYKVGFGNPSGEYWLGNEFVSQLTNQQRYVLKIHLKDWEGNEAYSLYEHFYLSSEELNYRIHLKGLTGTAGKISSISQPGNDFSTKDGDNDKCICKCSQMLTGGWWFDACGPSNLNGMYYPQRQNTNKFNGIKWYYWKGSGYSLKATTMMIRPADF
Type of data set: binding. The settings on record: for Relative Uptake (Da) Δ: 4B9. On the procedure:
The antigenic determinants (epitopes) of hAng2 recognized by mouse monoclonal antibodies, 2C8 and 4B9, were analyzed by HDX-MS (Hydrogen/deuterium exchange-mass spectrometry) technique. HDX-MS analysis methods are described in the following articles; Houde D, Engen J R (2013) Methods Mol. Biol. 988: 269-89 and Houde et al. (2011) J. Pharm. Sci. 100 (6), 2071.
Recombinant hAng2-RBD protein was used to analyze the epitopes of antibodies 2C8 and 4B9. […] The prepared hAng2-RBD/antibody complexes were diluted 15 times with deuterium labeling buffer, labeled at various time, and then quenched with the same volume of quenching buffer. The labeling reaction time was 0 min (undeuterium), 0.33 min, 10 min, 60 min and 240 min. However, in undeuterium condition, the deuterium labeling buffer was replaced with equilibrium buffer and the reaction was immediately stopped with quenching buffer. For mass spectrometry, the deuterium labeled hAng2-RBD/antibody samples were loaded on a pepsin column and peptide digestion was proceeded.
The deuterium uptake difference between hAng2-RBD alone and the hAng2-RBD-antibody complex conditions was comparatively analyzed, and a region showing a distinct decrease in the deuterium uptake is either a peptide to which the antibody binds directly, or a structurally changed region. When the deuterium uptake difference between hAng2-RBD alone and the hAng2-RBD-antibody complex was 0.5-1 Da or more, it was considered significant.
In the case of antibody 4B9, it cannot be ruled out that an undetermined region (residues 25 to 40 of SEQ ID NO: 2) can be included in the scope of the epitope. The epitope analysis results for each antibody are shown in different colors on the 3D structure of hAng2-RBD, which was generated using PyMol software (FIG. 2).

The test system of data set [1] is Tie2 receptor clustering / FOXO1 translocation in HUVECs. Description: Tie2 clustering and FOXO1 translocation in HUVECs (immunofluorescence). Type of data set: cell-based, human. How it is done: Tie2 clustering at cell-cell junction area and FOXO1 translocation from nucleus to cytosol by anti-Ang2 antibodies were examined in HUVECs by immunofluorescence. Specifically, HUVECs were seeded on 8 well slide chamber (Lab-Tek™ II) and maintained in EGM-2 medium for 2-3 days. At 100% confluence, the cells were serum starved with EBM-2 medium for 4 hrs and then treated with 1 μg/ml anti-Ang2 antibodies together with 1 μg/ml of hAng2 for 30 min. Thereafter, the cells were fixed with 4% formaldehyde in PBS at room temperature (RT) for 10 min, permeabilized with 0.1% TRITON™ X-100 (non-ionic polyoxyethylene surfactant) in PBS, blocked with 1% BSA in PBS at RT for 60 min, and incubated with primary antibodies at RT for 1 hr. The primary antibodies for hTie2, FOXO1, and Human Fc were used. The cells were then incubated with secondary antibodies (Invitrogen) in the dark at RT for 1 hr and mounted with VECTASHIELD® mounting medium with DAPI (Vector Labs, antifade mounting media optimized for immunofluorescence applications). Images were taken with a laser scanning confocal microscope (LSM880, Carl Zeiss).
2C8H11-induced Tie2 clustering and FOXO1 translocation was examined in a time-course study (from 10 min to 240 min). […] 6-4: Inhibition of Vascular Permeability by Humanized Anti-Ang2 Antibodies

The subject of data set [2] is CD31+ endothelial cells of CNV. As to the kind of experiment: Co-localization of subcutaneously injected antibody with CD31 in endothelial cells of CNV. In kind it is in vivo, mice. The settings on record: 25 mg/kg subcutaneous at 1 day; 2, 4 and 8 days after laser photocoagulation. How it is done: To investigate whether subcutaneously injected 2C8H11 can also exert the therapeutic effects on CNV, we firstly evaluated co-localization 2C8H11 antibody and CD31 in endothelial cells of CNV. The subcutaneous administration of 2C8H11 antibody (25 mg/kg) was performed at 1 day after laser photocoagulation. As a control, Fc (25 mg/kg) was administered in the same manner to the mice. The co-localization of 2C8H11 antibody and anti-CD31 antibody (1:200, Millipore®) in endothelial cells of CNV was directly detected by anti-human IgG antibody (1:1000, Jackson ImmunoResearch Laboratories) at 2, 4, and 8 days after laser photocoagulation (FIG. 15A).

Setting [3] is: residues 14-23 (SEQ ID NO: 2), exposure time 0.00 min.
Where [4] appears, read: residues 14-23 (SEQ ID NO: 2), exposure time 0.33 min.
Setting [5] is: residues 14-23 (SEQ ID NO: 2), exposure time 10.00 min.
Setting [6] is: residues 14-23 (SEQ ID NO: 2), exposure time 60.00 min.
The mark [7] stands for this setting: residues 14-23 (SEQ ID NO: 2), exposure time 240.00 min.
Setting [8] is: residues 14-24 (SEQ ID NO: 2), exposure time 0.00 min.
Setting [9] is: residues 14-24 (SEQ ID NO: 2), exposure time 0.33 min.
[10] abbreviates: residues 14-24 (SEQ ID NO: 2), exposure time 10.00 min.
The mark [11] stands for this setting: residues 14-24 (SEQ ID NO: 2), exposure time 60.00 min.
The mark [12] stands for this setting: residues 14-24 (SEQ ID NO: 2), exposure time 240.00 min.
Where [13] appears, read: residues 41-47 (SEQ ID NO: 2), exposure time 0.00 min.
The mark [14] stands for this setting: residues 41-47 (SEQ ID NO: 2), exposure time 0.33 min.
The mark [15] stands for this setting: residues 41-47 (SEQ ID NO: 2), exposure time 10.00 min.
Where [16] appears, read: residues 41-47 (SEQ ID NO: 2), exposure time 60.00 min.
Where [17] appears, read: residues 41-47 (SEQ ID NO: 2), exposure time 240.00 min.
Setting [18] is: residues 47-60 (SEQ ID NO: 2), exposure time 0.00 min.
Setting [19] is: residues 47-60 (SEQ ID NO: 2), exposure time 0.33 min.
[20] abbreviates: residues 47-60 (SEQ ID NO: 2), exposure time 10.00 min.
Setting [21] is: residues 47-60 (SEQ ID NO: 2), exposure time 60.00 min.
The mark [22] stands for this setting: residues 47-60 (SEQ ID NO: 2), exposure time 240.00 min.

Entries after “also recorded” stand apart in the source; their conditions may differ. Like-named read-outs stand apart in the source and are kept apart here.

B1: 4B9: mouse monoclonal anti-Ang2 antibody; VH SEQ ID NO: 9, VL SEQ ID NO: 11; hybridoma KCLRF-BP-00418 (antibody, V domains shown)
VH: EVQLVESGGGLVKPGGSLKLSCAASGFTFSDYYMYWVRQTPEKRLEWVATISVGGSFTYYPDSVKGRFTISRDNAKNNLYLQMSSLKSEDTAMYYCARDWGLRPWFVYWGQGTLVTVSA
VL: DIVMTQSHKFMSTSVGDRVSITCKASQDVSTAVAWYQQKPGQSPKLLIYWASTRHTGVPDRFTGSGSGTDYTLTISSVQAEDLALYYCQQHYSTPPTFGSGTKLEIK
modifications: Heavy Chain Variable Region; Light Chain Variable Region
notes: mouse monoclonal anti-Ang2 antibody; hybridoma KCLRF-BP-00418
In the case of B1, the “Relative Uptake (Da) Δ” value in the data set with hAng2-RBD (setting [3]) is listed as 0.25 Da; with hAng2-RBD (setting [4]), 0.34 Da; in the data set with hAng2-RBD (setting [5]), 0.83 Da; with hAng2-RBD (setting [6]), 0.78 Da; with hAng2-RBD (setting [7]), 0.60 Da; with hAng2-RBD (setting [8]) it was 0.01 Da. Moreover, the “Relative Uptake (Da) Δ” value was 0.33 Da in the data set with hAng2-RBD (setting [9]); 1.50 Da in the data set with hAng2-RBD (setting [10]); 1.35 Da in the data set with hAng2-RBD (setting [11]); 0.80 Da in the data set with hAng2-RBD (setting [12]); 0.15 Da with hAng2-RBD (setting [13]); 1.02 Da with hAng2-RBD (setting [14]). The “Relative Uptake (Da) Δ” value is recorded as 0.92 Da in the data set with hAng2-RBD (setting [15]); 1.15 Da in the data set with hAng2-RBD (setting [16]); 1.18 Da with hAng2-RBD (setting [17]); 0.05 Da in the data set with hAng2-RBD (setting [18]); −0.13 Da in the data set with hAng2-RBD (setting [19]); −0.06 Da in the data set with hAng2-RBD (setting [20]). Further, the results for the “Relative Uptake (Da) Δ” value in the data set with hAng2-RBD (setting [21]) and with hAng2-RBD (setting [22]) were −0.01 Da and −0.11 Da, respectively. The “epitope of hAng2-RBD to which the antibody binds” value with hAng2-RBD (deuterium uptake difference 0.5-1 Da or more considered significant) is listed as “residues 14 to 24 of SEQ ID NO: 2; also recorded: residues 41 to 47 of SEQ ID NO: 2”. In addition, the “Relative Uptake (Da) hAng2-RBD + 4B9” value with hAng2-RBD (setting [3]) amounted to 0.55 Da; with hAng2-RBD (setting [4]), 0.97 Da; in the data set with hAng2-RBD (setting [5]) it was 1.38 Da; with hAng2-RBD (setting [6]), 1.49 Da; in the data set with hAng2-RBD (setting [7]), 1.66 Da; with hAng2-RBD (setting [8]), 0.76 Da. Also, the “Relative Uptake (Da) hAng2-RBD + 4B9” value came to 1.27 Da with hAng2-RBD (setting [9]); 1.75 Da with hAng2-RBD (setting [10]); 2.05 Da with hAng2-RBD (setting [11]); 2.61 Da with hAng2-RBD (setting [12]); 0.16 Da in the data set with hAng2-RBD (setting [13]); 0.20 Da with hAng2-RBD (setting [14]). Further, the “Relative Uptake (Da) hAng2-RBD + 4B9” value with hAng2-RBD (setting [15]) was found to be 0.43 Da; in the data set with hAng2-RBD (setting [16]), 0.54 Da; with hAng2-RBD (setting [17]), 0.61 Da; in the data set with hAng2-RBD (setting [18]), 0.96 Da; with hAng2-RBD (setting [19]), 1.94 Da; in the data set with hAng2-RBD (setting [20]) it was 2.53 Da. The “Relative Uptake (Da) hAng2-RBD + 4B9” value with hAng2-RBD (setting [21]) is 2.69 Da; in the data set with hAng2-RBD (setting [22]), 3.06 Da.

B2: 2C8H11: humanized anti-Ang2 human IgG1 antibody from mouse 2C8; VH SEQ ID NO: 55, VL SEQ ID NO: 56 (antibody, V domains shown)
VH: QVQLVQSGAEVKKPGASVKVSCKASGYTFTSYWMHWVRQAPGQGLEWMGMIDPSDSETRLNQKFKDRVTMTRDTSTSTVYMELSSLRSEDTAVYYCARRFYYGSDWYFDVWGQGTLVTVSS
VL: DIQLTQSPSFLSASVGDRVTITCKASQDVGTAVAWYQQKPGKAPKLLIYWASTRHTGVPSRFSGSGSGTEFTLTISSLQPEDFATYYCQQYSSYPLTFGQGTKVEIK
modifications: human IgG1 constant regions; VH; VL
In the case of B2, the “co-localization of antibody with Tie2 receptor” value in data set [1] (HUVECs, 30 min, anti-human Fc staining) was “co-localized with clustered Tie2 receptor at cell-cell contact and endocytosed Tie2 receptor in cytosol”. Moreover, the “Tie2 translocation/clustering to cell-cell contact” value in data set [1] (HUVECs, 30 min, antibodies 1 μg/ml with hAng2 1 μg/ml) was “induced Tie2 translocation/clustering to cell-cell contact”. For the same molecule, in data set [1] (HUVECs, 30 min, compared to serum-starved control), the “FOXO1 translocation from nucleus to cytosol” value is listed as “markedly disappeared in nucleus”. For the same molecule, in data set [1] (time-course, with hAng2, 120 min and 240 min), the “Tie2 receptor / Tie2 clustering at cell-cell contact at late time points” value is listed as “sustained even after 240 min treatment”. Further, in data set [1] (time-course, with hAng2, up to 240 min), the “co-localized antibody with Tie2 at cell-cell contact” value was “maintained until 240 min”. The “detection of administered antibody in CD31+ endothelial cells in CNV area” value in data set [2] was “highly detectable”.
